What was measured:
HLA-A*01:01 = target: T1, HLA-A*01:01 (human); assay: UV-ligand exchange, anti-b2m ELISA; exchange yield grade (+ >10%, ++ >20%, +++ >50, ++++ >75%)
T1 construct: Peptide-receptive MHC monomer made by UV cleavage of a UV-sensitive peptide
Description: (§1) Candidate peptides for T cell based therapies according to the present invention were further tested for their MHC binding capacity (affinity). The individual peptide-MHC complexes were produced by UV-ligand exchange, where a UV-sensitive peptide is cleaved upon UV-irradiation, and exchanged with the peptide of interest as analyzed. Only peptide candidates that can effectively bind and stabilize the peptide-receptive MHC molecules prevent dissociation of the MHC complexes. To determine the yield of the exchange reaction, an ELISA was performed based on the detection of the light chain (β2m) of stabilized MHC complexes. The assay was performed as generally described in Rodenko et al. (Rodenko et al., 2006).
(§2) 96 well MAXISorp plates (NUNC) were coated over night with 2 ug/ml streptavidin in PBS at room temperature, washed 4× and blocked for 1 h at 37° C. in 2% BSA containing blocking buffer. Refolded HLA-A*02:01/MLA-001 monomers served as standards, covering the range of 15-500 ng/ml. Peptide-MHC monomers of the UV-exchange reaction were diluted 100-fold in blocking buffer. Samples were incubated for 1 h at 37° C., washed four times, incubated with 2 ug/ml HRP conjugated anti-β2m for 1 h at 37° C., washed again and detected with TMB solution that is stopped with […]. Absorption was measured at 450 nm. Candidate peptides that show a high exchange yield (preferably higher than 50%, most preferred higher than 75%) are generally preferred for a generation and production of antibodies or fragments thereof, and/or T cell receptors or fragments thereof, as they show sufficient avidity to the MHC molecules and prevent dissociation of the MHC complexes.

HLA-B*07:02 = target: T2, HLA-B*07:02 (human); assay: as above
T2 construct: Peptide-receptive MHC monomer made by UV cleavage of a UV-sensitive peptide
Description: as §1, §2

With YSDLHAFYY the peptide exchange yield (HLA-A*01:01) was greater than 75%.

With VPERGEPEL the peptide exchange yield (HLA-B*07:02) was 20 to 50%.

RVPSYTLIL showed a peptide exchange yield (HLA-B*07:02) of 50 to 75%.

Work on HPQVVILSL yielded a peptide exchange yield (HLA-B*07:02) of 50 to 75%.

With RPASSLRP the peptide exchange yield (HLA-B*07:02) was 20 to 50%.

Work on NSDLKYNAL yielded a peptide exchange yield (HLA-A*01:01) of 20 to 50%.

For VPDGVSKVL, the peptide exchange yield (HLA-B*07:02) was 20 to 50%.

With KPSSKALGTSL the peptide exchange yield (HLA-B*07:02) was 50 to 75%.

Binder FPAHPSLLL has a peptide exchange yield (HLA-B*07:02) of 20 to 50%.

RSDPGGGGLAY gave a peptide exchange yield (HLA-A*01:01) of 50 to 75%.

For YPLTGDTRL, the peptide exchange yield (HLA-B*07:02) was 20 to 50%.

Binder TPVTEFSLNTY has a peptide exchange yield (HLA-A*01:01) of 20 to 50%.

SPIKVPLLL was tested, and the peptide exchange yield (HLA-B*07:02) was 50 to 75%.

With FELPTGAGLQL the peptide exchange yield (HLA-B*07:02) was 20 to 50%.

With MPMISIPRV the peptide exchange yield (HLA-B*07:02) was 20 to 50%.

Binder RPAPADSAL has a peptide exchange yield (HLA-B*07:02) of 50 to 75%.

Work on VVHPRTLLL yielded a peptide exchange yield (HLA-B*07:02) of 20 to 50%.

Binder APAAVPSAPA has a peptide exchange yield (HLA-B*07:02) of 50 to 75%.

For GPGTRLSL, the peptide exchange yield (HLA-B*07:02) was 20 to 50%.

IPSRLLAIL gave a peptide exchange yield (HLA-B*07:02) of 50 to 75%.

For YSHAAGQGTGLY, the peptide exchange yield (HLA-A*01:01) was 50 to 75%.

In the case of NPYEGRVEV, the peptide exchange yield (HLA-B*07:02) is reported as 20 to 50%.

With IPEPSAQQL the peptide exchange yield (HLA-B*07:02) was 20 to 50%.

Binder SPGDKRLAA has a peptide exchange yield (HLA-B*07:02) of 50 to 75%.

SPSPGKDPTL gave a peptide exchange yield (HLA-B*07:02) of 20 to 50%.

In the case of FITAQNHGY, the peptide exchange yield (HLA-A*01:01) is reported as 20 to 50%.

With VLDLSTNVY the peptide exchange yield (HLA-A*01:01) was 50 to 75%.

LITGDPKAAYDY showed a peptide exchange yield (HLA-A*01:01) of 20 to 50%.

Binder SILGSDVRVPSY has a peptide exchange yield (HLA-A*01:01) of 20 to 50%.

In the case of FPYPYAERL, the peptide exchange yield (HLA-B*07:02) is reported as 20 to 50%.

Source: patent US20180291082A1 (IMMATICS BIOTECHNOLOGIES, published 2018)
